Laboratory results: PMC6109231
Where “and” joins values, the source holds several entries; their conditions need not be identical. Equal values may be shown once.

Biological target: 20S proteasome core (human (endogenous in HEK293T))
Assay: negative-stain EM, single-particle analysis; SEC fraction 4 (1.5 to 2 MDa) of HEK293T lysate, Superdex 200 in PBS pH 7.2 at 4°C; 2% uranyl acetate; raw micrographs, reference-free 2D class averages, 3D classification (RELION) and ab initio reconstruction (cryoSPARC); proteins identified by mass spectrometry of the fraction

stoichiometry N: 1 and 2
Substance: 19S regulatory particle (complex)
